Assay results taken from patent US7132258.

Target: Gal4 DBD fusion of the LBD of hRARα (human)
Experiment: cell-based or functional assay

In the case of “full-length RAC3 expressed from pCMX.F.RAC3 (FLAG and HA epitope at the N-terminus) (from UniProt Q9Y6Q9 2-1424)”, the ligand-dependent transcriptional activation by Gal4 DBD fusion of RAR on a Gal4-dependent luciferase reporter, A549 cells, 100 nM atRA is reported as 2 fold.
